The source of these data is US20230212549A1, “COMPOUNDS COMPRISING A […] LIGAND AND USE THEREOF” (priority 2021, published 2023).

What all share (experiment): radioligand displacement (agonist radioligand), 10 µM
(Displacement assays read how much labelled ligand stays bound in the presence of the test substance.)

The target of assay [1] is 5-HT2A (h) (human), P28223. To be noted: remark: other sources report otherwise.
Assay [2] addresses T1, AR (h) (human), P10275.
T1 chain: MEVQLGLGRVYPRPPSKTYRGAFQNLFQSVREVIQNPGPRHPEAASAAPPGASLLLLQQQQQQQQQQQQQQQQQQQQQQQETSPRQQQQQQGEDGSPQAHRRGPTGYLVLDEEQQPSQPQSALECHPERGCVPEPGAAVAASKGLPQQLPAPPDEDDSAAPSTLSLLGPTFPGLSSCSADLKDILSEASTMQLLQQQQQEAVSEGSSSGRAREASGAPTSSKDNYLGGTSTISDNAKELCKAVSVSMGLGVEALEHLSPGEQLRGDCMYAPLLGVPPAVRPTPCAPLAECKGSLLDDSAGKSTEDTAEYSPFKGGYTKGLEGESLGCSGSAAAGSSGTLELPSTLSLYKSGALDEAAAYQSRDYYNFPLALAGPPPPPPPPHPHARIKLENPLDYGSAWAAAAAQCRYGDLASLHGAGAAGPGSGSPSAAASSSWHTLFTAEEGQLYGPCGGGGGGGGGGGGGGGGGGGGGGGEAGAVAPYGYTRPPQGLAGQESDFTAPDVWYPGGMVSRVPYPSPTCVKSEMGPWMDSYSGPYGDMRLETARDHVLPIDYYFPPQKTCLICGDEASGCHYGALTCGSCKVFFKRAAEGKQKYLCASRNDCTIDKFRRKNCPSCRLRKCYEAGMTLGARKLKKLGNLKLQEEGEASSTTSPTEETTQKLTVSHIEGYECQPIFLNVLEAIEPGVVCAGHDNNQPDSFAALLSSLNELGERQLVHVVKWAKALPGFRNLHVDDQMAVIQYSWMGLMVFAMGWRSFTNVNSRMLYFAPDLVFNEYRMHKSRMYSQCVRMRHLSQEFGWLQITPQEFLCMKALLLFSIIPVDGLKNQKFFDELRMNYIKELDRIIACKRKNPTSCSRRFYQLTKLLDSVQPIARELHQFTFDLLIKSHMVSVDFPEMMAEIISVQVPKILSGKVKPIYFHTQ
To be noted: remark: other sources report otherwise.

Assay [3] has as its target CB2 (h) (human), P34972. To be noted: remark: other sources report otherwise.
In assay [4] the target is T2, D2S (h) (human), P14416.
T2 chain: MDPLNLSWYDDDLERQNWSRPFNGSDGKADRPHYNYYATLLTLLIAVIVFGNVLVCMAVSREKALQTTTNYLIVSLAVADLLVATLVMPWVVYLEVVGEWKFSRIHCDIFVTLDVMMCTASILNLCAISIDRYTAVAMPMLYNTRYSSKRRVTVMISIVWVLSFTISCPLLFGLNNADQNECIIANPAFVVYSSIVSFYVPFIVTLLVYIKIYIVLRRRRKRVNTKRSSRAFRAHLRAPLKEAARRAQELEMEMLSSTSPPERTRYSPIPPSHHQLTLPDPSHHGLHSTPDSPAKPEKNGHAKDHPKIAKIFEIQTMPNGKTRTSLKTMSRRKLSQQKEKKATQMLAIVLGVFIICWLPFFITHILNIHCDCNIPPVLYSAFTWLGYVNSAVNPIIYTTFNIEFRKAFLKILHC

Assay [5] deals with T3, GR (h) (human), P04150.
T3 chain: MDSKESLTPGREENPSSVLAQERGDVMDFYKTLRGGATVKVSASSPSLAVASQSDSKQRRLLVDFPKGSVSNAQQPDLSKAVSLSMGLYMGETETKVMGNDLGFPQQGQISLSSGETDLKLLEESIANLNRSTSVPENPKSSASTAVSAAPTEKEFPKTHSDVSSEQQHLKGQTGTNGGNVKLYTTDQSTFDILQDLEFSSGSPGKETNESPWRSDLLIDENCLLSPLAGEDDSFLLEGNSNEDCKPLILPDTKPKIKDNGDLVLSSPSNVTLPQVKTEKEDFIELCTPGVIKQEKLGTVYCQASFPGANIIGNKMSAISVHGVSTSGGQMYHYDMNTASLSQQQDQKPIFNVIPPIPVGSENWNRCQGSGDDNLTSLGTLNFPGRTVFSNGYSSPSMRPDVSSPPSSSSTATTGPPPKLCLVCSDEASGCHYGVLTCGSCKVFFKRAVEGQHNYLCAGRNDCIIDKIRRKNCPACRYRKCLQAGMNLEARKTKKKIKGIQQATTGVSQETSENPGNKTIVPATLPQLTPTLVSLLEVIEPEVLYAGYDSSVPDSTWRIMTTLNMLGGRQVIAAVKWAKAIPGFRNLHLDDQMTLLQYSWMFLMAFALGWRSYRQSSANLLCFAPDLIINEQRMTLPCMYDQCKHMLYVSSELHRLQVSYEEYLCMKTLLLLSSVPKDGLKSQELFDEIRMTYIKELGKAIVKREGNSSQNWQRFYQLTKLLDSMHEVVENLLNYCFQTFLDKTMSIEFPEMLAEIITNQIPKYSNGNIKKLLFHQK
Conditions: remark: other sources report otherwise.

Substrate in assay [6]: N neuronal alpha 4beta 2 (h) (human), P43681
Conditions: remark: other sources report otherwise.

In assay [7] the target is T4, delta (DOP) (h) (human), P41143.
T4 chain: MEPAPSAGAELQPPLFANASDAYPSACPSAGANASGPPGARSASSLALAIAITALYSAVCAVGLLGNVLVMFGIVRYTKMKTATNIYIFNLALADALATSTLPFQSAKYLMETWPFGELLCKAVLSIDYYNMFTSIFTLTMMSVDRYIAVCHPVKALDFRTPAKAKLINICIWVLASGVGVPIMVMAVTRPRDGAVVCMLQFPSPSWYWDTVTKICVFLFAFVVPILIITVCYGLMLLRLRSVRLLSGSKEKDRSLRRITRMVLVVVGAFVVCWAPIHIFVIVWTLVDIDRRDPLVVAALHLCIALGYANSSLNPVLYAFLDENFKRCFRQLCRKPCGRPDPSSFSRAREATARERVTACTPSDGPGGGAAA
To be noted: remark: other sources report otherwise.

For assay [8], the target named is kappa (h) (KOP) (human), P41145. Conditions: remark: other sources report otherwise.
Assay [9] deals with mu (MOP) (h) (human), P35372. Conditions: remark: other sources report otherwise.

Bridge positions count the residues as written; N and C are the ends.

Sequence of mu (MOP) (h) (human), P35372 (P35372 whole entry): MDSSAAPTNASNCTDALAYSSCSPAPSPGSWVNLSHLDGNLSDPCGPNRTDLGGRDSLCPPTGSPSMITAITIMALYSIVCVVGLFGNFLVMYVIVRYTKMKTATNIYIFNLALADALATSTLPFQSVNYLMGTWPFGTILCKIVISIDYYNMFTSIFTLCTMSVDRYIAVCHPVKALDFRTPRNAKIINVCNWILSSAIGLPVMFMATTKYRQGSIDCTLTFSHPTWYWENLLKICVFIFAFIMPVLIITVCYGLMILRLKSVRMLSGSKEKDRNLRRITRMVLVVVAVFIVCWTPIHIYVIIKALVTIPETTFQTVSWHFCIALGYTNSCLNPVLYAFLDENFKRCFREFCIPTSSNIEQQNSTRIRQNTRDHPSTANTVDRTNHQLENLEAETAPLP
Sequence of N neuronal alpha 4beta 2 (h) (human), P43681 (P43681 27-627, chain 1 of 2): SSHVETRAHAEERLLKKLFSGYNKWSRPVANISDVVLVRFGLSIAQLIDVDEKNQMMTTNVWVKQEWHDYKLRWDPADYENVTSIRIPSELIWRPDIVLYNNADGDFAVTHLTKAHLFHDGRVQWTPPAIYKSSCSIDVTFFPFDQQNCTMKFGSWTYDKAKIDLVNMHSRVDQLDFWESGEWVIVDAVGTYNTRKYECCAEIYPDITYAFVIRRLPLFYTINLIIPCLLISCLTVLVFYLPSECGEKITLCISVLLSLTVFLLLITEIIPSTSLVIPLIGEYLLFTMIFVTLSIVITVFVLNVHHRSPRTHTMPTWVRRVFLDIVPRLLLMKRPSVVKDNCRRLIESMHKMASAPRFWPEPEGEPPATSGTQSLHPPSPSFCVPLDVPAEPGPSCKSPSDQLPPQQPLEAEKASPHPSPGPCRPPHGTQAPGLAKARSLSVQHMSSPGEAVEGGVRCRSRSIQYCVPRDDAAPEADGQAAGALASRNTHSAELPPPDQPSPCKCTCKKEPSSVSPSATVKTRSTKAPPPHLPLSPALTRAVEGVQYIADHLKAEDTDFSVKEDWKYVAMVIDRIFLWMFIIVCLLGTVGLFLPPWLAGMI
Sequence of N neuronal alpha 4beta 2 (h) (human), P43681 (P17787 26-502, chain 2 of 2, further chain): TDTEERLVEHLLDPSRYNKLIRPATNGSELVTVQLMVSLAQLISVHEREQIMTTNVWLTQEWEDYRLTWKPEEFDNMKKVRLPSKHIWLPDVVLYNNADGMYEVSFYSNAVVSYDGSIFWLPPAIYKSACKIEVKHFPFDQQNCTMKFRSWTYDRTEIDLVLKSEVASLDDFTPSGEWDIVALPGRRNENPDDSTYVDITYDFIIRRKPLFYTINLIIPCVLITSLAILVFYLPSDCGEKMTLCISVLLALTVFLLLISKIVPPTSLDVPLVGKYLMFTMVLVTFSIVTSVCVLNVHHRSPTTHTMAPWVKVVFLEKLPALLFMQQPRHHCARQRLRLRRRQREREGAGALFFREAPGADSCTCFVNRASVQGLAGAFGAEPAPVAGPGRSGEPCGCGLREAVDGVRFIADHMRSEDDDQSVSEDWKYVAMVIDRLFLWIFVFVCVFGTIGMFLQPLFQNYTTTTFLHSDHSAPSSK
Sequence of kappa (h) (KOP) (human), P41145 (P41145 whole entry): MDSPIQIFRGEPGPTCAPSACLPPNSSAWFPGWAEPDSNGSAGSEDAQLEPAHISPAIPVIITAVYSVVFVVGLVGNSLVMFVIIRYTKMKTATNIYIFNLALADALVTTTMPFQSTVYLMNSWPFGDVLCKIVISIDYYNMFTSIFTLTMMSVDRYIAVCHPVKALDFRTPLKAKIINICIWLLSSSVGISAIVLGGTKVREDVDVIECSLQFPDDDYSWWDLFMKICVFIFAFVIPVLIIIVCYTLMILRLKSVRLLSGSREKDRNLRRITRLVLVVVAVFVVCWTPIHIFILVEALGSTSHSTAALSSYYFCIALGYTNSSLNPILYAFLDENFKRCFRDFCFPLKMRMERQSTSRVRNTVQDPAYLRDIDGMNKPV
Sequence of CB2 (h) (human), P34972 (P34972 whole entry): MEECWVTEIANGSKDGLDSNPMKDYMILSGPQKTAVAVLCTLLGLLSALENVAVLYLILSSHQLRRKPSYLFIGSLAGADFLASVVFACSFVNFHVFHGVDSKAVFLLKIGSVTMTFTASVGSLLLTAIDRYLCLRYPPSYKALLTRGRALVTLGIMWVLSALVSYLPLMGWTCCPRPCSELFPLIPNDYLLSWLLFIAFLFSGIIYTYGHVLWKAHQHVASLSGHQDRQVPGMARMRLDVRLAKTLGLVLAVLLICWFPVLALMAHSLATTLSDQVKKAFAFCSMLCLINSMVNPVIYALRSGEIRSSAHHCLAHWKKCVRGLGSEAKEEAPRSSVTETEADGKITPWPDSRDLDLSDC
Sequence of 5-HT2A (h) (human), P28223 (P28223 whole entry): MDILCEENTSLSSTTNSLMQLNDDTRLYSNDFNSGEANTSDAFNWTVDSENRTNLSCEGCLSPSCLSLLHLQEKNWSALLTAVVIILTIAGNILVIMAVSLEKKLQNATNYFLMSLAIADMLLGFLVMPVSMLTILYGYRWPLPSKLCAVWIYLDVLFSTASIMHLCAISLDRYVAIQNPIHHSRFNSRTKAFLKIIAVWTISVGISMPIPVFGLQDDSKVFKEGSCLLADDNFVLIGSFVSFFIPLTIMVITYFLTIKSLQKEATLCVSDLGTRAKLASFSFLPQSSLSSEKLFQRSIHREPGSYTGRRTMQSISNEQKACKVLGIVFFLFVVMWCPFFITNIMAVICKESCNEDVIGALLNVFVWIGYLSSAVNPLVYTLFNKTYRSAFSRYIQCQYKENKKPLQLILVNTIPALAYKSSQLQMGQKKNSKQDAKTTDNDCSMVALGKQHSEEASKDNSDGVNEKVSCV

B1: Hex-[Cys(tMeBn(DOTA-PP))-Pro-Pro-Thr-Gln-Phe-Cys]-Asp-NH2 (peptide)
peptide: Hex-CPPTQFCD-NH2
modifications: bridge 1-7; not fully specified (bridges); printed as Hex-[Cys(tMeBn(DOTA-PP))-Pro-Pro-Thr-Gln-Phe-Cys]-Asp-NH2
As to B1, the % Inhibition of Specific Binding is -2% in assay [1]; 3% in assay [2]; 2% in [3]; 15% in [4]; -2% in assay [5]; -8% in assay [6]. The % Inhibition of Specific Binding in assay [7] worked out at 0%; in [8], 7%; in [9], 2%.

B2: Hex-[Cys(tMeBn(DOTA-AET))-Pro-Pro-Thr-Gln-Phe-Cys]-OH (peptide)
peptide: Hex-CPPTQFC-OH
modifications: bridge 1-7; not fully specified (bridges); printed as Hex-[Cys(tMeBn(DOTA-AET))-Pro-Pro-Thr-Gln-Phe-Cys]-OH
Turning to B2, the % Inhibition of Specific Binding is 4% in [1]; -5% in assay [2]; -5% in [3]; -7% in [4]; 0% in [5]; -2% in [6]. In addition, the % Inhibition of Specific Binding is 1% in assay [7], 10% in assay [8] and -10% in assay [9].
